In this experiment the target is 109QmHtt (UniProt P42858). Description: cell-based or functional assay.
Sequence of 109QmHtt (P42858 other isoform, or with tags, fused parts or gaps): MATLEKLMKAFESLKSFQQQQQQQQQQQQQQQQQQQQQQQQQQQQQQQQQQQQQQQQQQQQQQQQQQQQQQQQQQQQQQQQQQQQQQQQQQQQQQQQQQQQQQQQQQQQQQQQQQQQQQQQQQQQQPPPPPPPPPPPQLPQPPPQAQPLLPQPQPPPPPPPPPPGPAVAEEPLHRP
The molecule RRRRRRRRWDQQQQQQQQQQQQQQQ (C-terminal amide (CONH2)) [8R15Q] gave an average size of the aggregates (TIRF microscopy, Neuro2a cells) of 0.2 µm^2.
RRRRRRRRWDQQQQQQQQQQ (C-terminal amide (CONH2)) [8R10Q] registered an average size of the aggregates (TIRF microscopy, Neuro2a cells) of 0.3 µm^2.
For RQQRRQQDQRQWQRQRQQR (C-terminal amide (CONH2)) [s8R10Q] the value was 1.7 µm^2; for RRRRRRRRWD (C-terminal amide (CONH2)) [8R], 3.3 µm^2.

The values above are taken from patent publication US20170226169A1.
